# From the DeepSol protein solubility set
# Assay: soluble on expression in E. coli; label from the status in PepcDB or PDB records
row,Sequence,soluble on expression in E. coli
1,MAHHHHHHMSLRPDVFGQPPIVDRFARFAIARRGSSSSHNNNNNNNNNNSGSVSPLERGGVHGNDKSPAAAPVAAGVGSKAGVRESSAKSRLSLGVSNTDVVLESPISSNAAEATSEVMDVTSTAQADDEEEDEVETLNRFMADQSDETATRTHKRTLFSLNLTLAEVMETAMHFSQMRPTSPEEYKKAMAMIRAADDARHERIAAFRSATPTTGSHNGMGSSPSSSLTTTPTVGYPDAALHIEEPMHFGVVMLHIRFALRKIIHASMRRLAAQQGPKTLSMMVEMLREVDPKWHQNQNNNSGELRRQSDSMLAGTLRVLVARSVVCVDLVGEAGDLLGGGAGGLAISAVGLQRTERALHLVQRAKRSATGSGGNTGDHVSRRRPQRHRGDGGARTSSSGEKRSIS,not soluble
2,MAHHHHHHMSLVKMKERDEKAREEAEKLLNEVIEQSQGKMYKPTAAAGVGVNTQPHNRRMRVETLRSTPDYIFKIILVGDSYVGKTRFLKNLVGAIGFGDQCVTTLSVDVVNHYVIVDGKTVQVLMYDTCGQERFRAMTAQFYRDAHGAIMVYDTTQIGSFDNIEVWFSQLNSFGCENTSKILVGNKCDLPERRAVEIGRARALADKLGVPFIETSAMTGAGVAVAVEALVRMIMRQQPVPLASQWAGSKSGHRNAVNLERPRRENGTGRRSERSQRNDNCCCQ,soluble
3,MAHHHHHHMSRHPLSRHINTSSVKLKIVKCKLFDIGEGISEVEITQWNKNEGDNVSEMETLLTVQSDKAAVDITSKYSGVLVKRYAEEKDVIKIGSYFCEIDTEDEVGEAAEEVVANEVADEADGRVDPGGPLSPAKVTQQGSKAPTVKASPGVKKKAQEYKLDVDAIGSYFSKEAITMLDVELYHQKVKSGEISNAGSDFNGEVLEEVPLKGIKLAMCKCMNDSLSIPLFHLNEKYNVQNLLSARNVIKKSVLQKDNVNVTLTSVLIKLISTVLKDFPLLNSKFDSQKNAYTIFKSHNVCVAMDTPNGLLVPNIKQVESKNVVEIQKELTSLRDKALQMKLSKSDISGGTITVSNFGVIGGTFATPIVFENQACIIGLSKIQKQLLLKNEKKELTALSDILVADVMNLTFGADHRFVDGATLAQFSKKLKEVVEGVTSLDPYAA,not soluble
4,MAHHHHHHMSRNGELCLKKVIISYCPSNGAPNTRQFLATHLPHFHAKYPSVSIDLRPRLWPEMAITGVYRDGSERSYNTKNLSPMGIFLRLNNLVSTANDYDQPFCASHLHFQRRSVQGTWNPWLWNYETERRRTEAPQWRRKLSEKEWDYYVGQYSAQMKQEEDEIQRRVADRTCVQEQSTREVQERWKRHVVPRMQTDLEFNLSHFKRQHARGQLQQRPVTMGEYRLFSVPDPRELGQDAVDTMRRRESHNMEVWWRKRKEQLKPP,not soluble
5,MAHHHHHHMSSAVVKPSNGEMPKTKEQKEMKNEYQVETNKELQVNLNFHNNNIISNIFSNLSLFDYLTNIFTINKKTYMLKYCNKLNEDNFYISYFQKENDKFAQISPWHDIDLMNEDGTYNMVVEITKYNYIKLEIQLKENFNVIKQDTKKGKLRYYHNSIYWNYGALPRTYEYPKHIYTCQTGDNQDLFFTGDDDPLDVVDVGQNSLKMGQVVPVKVGSMQSHMTYM,not soluble
6,MAHHHHHHMSSCQNTHAARLHSATSAYAGEPESWMWTPARENGDGWRSPGTGTATSATAEAALHFVWGRVLSVYAVMPLNQTWNVQGVVDAVLPPLPANGGTTAAPSPPAAPAMAPGFQLLVMAAALLSPPATATTAVAAAPSMASLHKLSLMSPADAEPVDVGELSGAFWLAALRRAWPLFQACGVSHEPMTQGSNTNITEEAASSLGGVAVGMAGSGVNLEDLRTIVLSLFLRFADDSAVASAMAAADGDGAKLCGSAIRWAEAMCSDAPATYAQ,not soluble
7,MAHHHHHHMSSELVLAQESAWDKFGSKLKDMPFLNNFFENPILGKLFGETELAAALREMKMYDQNFKLSELMYLFEFVISKHIVESYLIGDEETLRVHCGQSAFNSLNASINERKKKKVYLDTNVLIYKNHELKGAQRMEESSPWFIFTFHTQQINCLKNANDEIIEGNIDDIREVVYTIALSKHPEPEREGLLYPYIVREFAIY,not soluble
8,MAHHHHHHMSSSDLIKEDDYVFISGRGLNKIVQIKKDVTVRLGRSGAALATTLIGIRYGGVCHLDHARKKFVESDEYPDLDITEVGDGEEVKDNRDLVDDNTNQQLSNDEVAAIRRDKGLDELLQALVEKSASYRTKTNFAQEKYLKKKQKKYGTLFKVERVTVDNLAELHVPTINPSDNTSEDARCLRLRADTVALILHHSDVHHNSRVILYEKTNGVLPASLLTRMSDEGRIFQILDKNAQPSPTTAVKVLKLPLVKERWKAVPRNRGFLEGLEEPDKDSARDTAEAAEKNAAGAAAGKGLQRQDICASSTQWVKGLEARQLLLESSADSLVICDDEAPQRAVADLLPFLAFGGHIVVYSPFLEDLTGIFLALRDDCVNLQISETWYRHHQVLPKRTHPTVNMSTAAGYLLTAIKVCRNPAAPRLTAAVTAPALSATTHAGHKRSATEELNGMASKKSATREASDEGNAN,not soluble
9,MAHHHHHHMSSTVTGQAIPKLFPKAFHSWVGTGRIFNFLAPYEQNRVIAYLNSIYNTAPLFKWSLSIVPLYGIVSGYPPVEKIDFNSSAALCATGMVWFVYALLIQPQNSGSRSLALVNICLATVNGYNCYRSAQHKRRQAVNANRIE,not soluble
10,MAHHHHHHMSVPEWARSEHSIEEAKEYLRTGNSVDFFELVSSHILREHPLDVAAFALDLVERISKLGNTLSARDYHPKRVEDNKYLQEKNVCEFLNEWILALLKERPDTDEARMSFHKRYLKSLVDGGGCSQCTSVN,not soluble
11,MAHHHHHHMSVVISTSLGSLLINLRFVDCPKASFNFLALCASSYYDGCRFHRLVPETFVLTGDPTGTGKGGESVFVHHQDIKQRYFEDEGMGNALHDRRGVVSMAHKGNKPDTNASQFFILFKPCPSLDSKHTAFGVVDFGWNDGESERTLKRVEELEADGSYNVLDVEARILSTTVLYNPFAEGHIKLNV,not soluble
12,MAHHHHHHMSWRTRVVRCPLQEPHNPFDMGRVMQRFWSPFCKGVKGPDLHTYGFGETFSGMRTHDSDFTCQVNGQVGGAKLVEDFFITLLCGFDFEHVKVERHLTTSGAADPCQFQGTIVLAHTRPFLGWCPQPVTHSLEKCPSPSECDATKVSTNNINELGNTTATASRCLVQTGGNTEAPVPSLILNVPFTARLEGNVGRISHMILRSPAIGVIAAHQCCPAEVGSCLQNPEALQALVTLRRANVRPEMITDRTLVGITAKKAAWCSALGIL,not soluble
13,MAHHHHHHMTAPITGPMLLGAASVDVLRSMLTLDPFQCLVAQRLCEELSCQRFPKVTLLIFKSMPDPRLLQLRSSVGEEVTVTVSRLNDLRCKFTLGDKANYEHLYNMRTPAKPRTVCTFDIVLPTSRLTGLSRCIDHLIAAAERMVMPRITVEALCCTEQDERRKIVREEKDHWDFLFHGLRVGSFITVLRRLPSITAMHAPPIPHDYTFSAALSNPGFVLPSHYCGRLATVPTGAKGVSTPFIAIAEPAIPTGAKVSIRCQLIRGNQGQILGGGYYFGVCTPSFHWKHKDLNVHTGEVWALHDMDDSPWRLRHLRPDATFPVAAEPRCIIVSGDIIRLYIDRTARVMHAFRTPVNGDEIPLGLHL,not soluble
14,MAHHHHHHMTITLDSFNEQKVHNNQNKRKYNCRLNFKRFTKRRNNYNEDNRDSKINIKTALIKNEVISDDNDEFIDSNLMRTCHRFRLYKHSSNKIDIYYPYDKKKLDKYDYERDQTFCSLTDIEDVVNNGDDKSSKFFYYKNKSLNDYKSCFEKKNKKTKWFRLRKKKKKDHAMDESLKYLNESVCSNYKEANKNNKLDNSSKYSKNCVINTTVNGIRGFSAWIF,not soluble
15,MAHHHHHHMTKSYLNQDQQLRAQQVYTTHKHLKELSMATKEALTYHDKYLAAMEHVMSCLLNNSDALEDARKHLTQEAAVDIQPTFPTAGRLAAAYSNWRVSAELHMMRTELEFLKEVSTTGHEAVKKTKNAVHGLEKVAKKCAHVNSPEFEAKISSKSGKALEKLLHEQRETNTMMMSIENAIKKDMMSLATSWSAKLVTRGDALYTAFRSLGCRTVACFPTTDPTLSQGMPPPAAGYVLSQPSSASTSVPYSGGTAVGHGTPSTLPAAQSVECAAVPLSSAGEGAAAGVKLEFNLNEGKPVSR,soluble
